Several values for one entry are separate records, joined by “and”; a condition that tells them apart may be missing. Equal values may be shown once. Entries after “also recorded” stand apart in the source; their conditions may differ. Read-outs that look alike come from different tables or passages of the source.
How the values were obtained:
[1] = system: male Sprague Dawley rats exposed to 3dRH (rat model of HAAF); type: in vivo
Experimental: For Experiment 5, a total of 21 rats were subjected to a three day recurrent hypoglycemia (3dRH) paradigm adapted from previous studies (44). […] On each of the three days of the paradigm, all rats received an IP injection of either PBS or leptin at ≈1.5 h prior to lights off. […] On the fourth day, all three cohorts of rats were then subjected to a hypoglycemic ITT for determination of hypoglycemia-induced epinephrine, glucagon, and corticosterone secretion. Leptin levels were also assayed in each group at the conclusion of the ITT. […] For mice, trunk blood was collected following CO2 euthanasia. […] Louis, Mo.). […] Rat leptin levels were determined by […], MilliporeSigma, St. Louis, Mo.). […] Methods: In experiment one, 3 groups of mice (two CR groups and one ad-lib fed control group) received either twice daily leptin (0.5-1 μg/g, IP) or PBS. In experiment two, 3 groups of rats (two 3dRH and one control) received daily leptin or PBS injections (0.3-0.7 mg/kg, IP).

starved rats = conditions: acute leptin infusion during starvation, cited from earlier work
[2] = system: male C57BL/6J mice exposed to 60% caloric restriction (CR mice); type: in vivo, mouse
Experimental: In order to overcome differences in baseline blood glucose levels between groups, a variable dose of insulin (IP) was used to produce equivalent exposure to hypoglycemia (A). […] Data were analyzed via one or two way ANOVA. Group differences were determined via Bonferroni's multiple comparison test with significance levels as follows: *- p<0.05; n=7-8/group. A total of 149 mice were subjected to the severe caloric restriction and refeeding paradigm across four separate experiments. The following procedures were identical across all four experiments. Animals were randomly assigned to one of two groups: Mice exposed to severe caloric restriction for six days (CR mice) or ad libitum fed mice (Ad-lib mice). […] Following a five-day acclimation period to wire-bottomed cages (Days 0-4), food intake was monitored daily in each mouse for six days prior to initiation of caloric restriction, and each mouse's average daily food intake was determined (Days 5-10). […] Body weight and free-living blood glucose were measured daily immediately prior to feeding. […] During the refeeding period, food intake, free-living blood glucose, and body weight continued to be measured daily at 1.5 h before lights off in both CR and Ad-lib mice up to the terminal day of the experiments. […] Rat leptin levels were determined by […], MilliporeSigma, St. Louis, Mo.). […]

[3] = system: rats exposed to a single bout of hypoglycemia or 3dRH; conditions: cited from earlier work
[4] = acute ICV leptin in 3dRH rats, first 40 min of 90 min hypoglycemic challenge, relative to 3dRH rats not treated with leptin
[5] = acute ICV leptin infusion, rats exposed to a single bout of hypoglycemia

B1: leptin (protein, UniProt P50596 22-167, looked up)
Leptin: VPIHKVQDDTKTLIKTIVTRINDISHTQSVSARQRVTGLDFIPGLHPILSLSKMDQTLAVYQQILTSLPSQNVLQIAHDLENLRDLLHLLAFSKSCSLPQTRGLQKPESLDGVLEASLYSTEVVALSRLQGSLQDILQQLDLSPEC
notes: hormone secreted by adipocytes
hypoglycemia-induced glucagon levels ([1]; 3dRH paradigm with leptin): not affected
hypoglycemia-induced glucagon levels ([1]; 3dRH+Leptin rats, 60 min of ITT, mean (SD)): 34 pmol/L
increase of epinephrine levels relative to untreated 3dRH rats ([1]; leptin concurrent with antecedent hypoglycemia): 50%
leptin levels at the 60-minute time point relative to controls ([1]; rat, in vivo): significantly increased
serum leptin levels at the conclusion of the ITT ([1]; rat, in vivo): 5.1 ng/mL
effect on blood glucose (starved rats; physiological doses): reducing blood glucose
effect on blood glucose (starved rats; supraphysiological doses): increasing blood glucose
hypoglycemia-induced glucagon levels ([2]; CR+Leptin mice, twice daily IP leptin 0.5-1 μg/g during CR, 60 min of ITT, Day 1 of refeeding, mean (SD)): 91.7 pmol/L and 78.1 pmol/L
serum glucagon levels in response to the ITT ([2]; Example 7, leptin-treated CR mice, 0.5-1 μg/g IP twice daily, after 16 h refeeding and 6 h fast): 78.0 ± 16.8 pg/mL
epinephrine levels increased by [3, 4]: 25%
glucagon levels increased by [3, 4]: 45%
epinephrine levels increased by [3, 5]: 19%
glucagon levels decreased by [3, 5]: 50%
rescue of counter-regulation by acute leptin ([3]; acute leptin administration, 3dRH rats): did not restore counter-regulation; also recorded: does not reverse the effects of 3dRH; also recorded: did not correct the deficit in epinephrine release; also recorded: does not rescue the effect
epinephrine levels lower than untreated rats exposed to a single bout of hypoglycemia ([3]; leptin treated 3dRH rats): 60%
